Laboratory results published in US12344663B2, “Anti-C3 antibodies and antigen-binding fragments thereof and their uses for treating eye or ocular diseases” (CDR-Life AG, priority 2021, dated 2025).
Where two headings read alike, the source gives them in different places.

What was measured:
[1] = target: T1, human C3 R102G (Homo sapiens, UniProt P01024, R102G); experiment: SPR (Biacore T100) binding to C3 SNP2 R102G; conditions: for Kd: Table 20, SPR; for kd C3 SNP2 R102G: off-rate; for ka C3 SNP2 R102G: on-rate
T1 construct: 6×His (N); made in house; host or cells: CHO (ExpiFectamine CHO Expression Kit)
T1 sequence (P01024 23-1663 R102G): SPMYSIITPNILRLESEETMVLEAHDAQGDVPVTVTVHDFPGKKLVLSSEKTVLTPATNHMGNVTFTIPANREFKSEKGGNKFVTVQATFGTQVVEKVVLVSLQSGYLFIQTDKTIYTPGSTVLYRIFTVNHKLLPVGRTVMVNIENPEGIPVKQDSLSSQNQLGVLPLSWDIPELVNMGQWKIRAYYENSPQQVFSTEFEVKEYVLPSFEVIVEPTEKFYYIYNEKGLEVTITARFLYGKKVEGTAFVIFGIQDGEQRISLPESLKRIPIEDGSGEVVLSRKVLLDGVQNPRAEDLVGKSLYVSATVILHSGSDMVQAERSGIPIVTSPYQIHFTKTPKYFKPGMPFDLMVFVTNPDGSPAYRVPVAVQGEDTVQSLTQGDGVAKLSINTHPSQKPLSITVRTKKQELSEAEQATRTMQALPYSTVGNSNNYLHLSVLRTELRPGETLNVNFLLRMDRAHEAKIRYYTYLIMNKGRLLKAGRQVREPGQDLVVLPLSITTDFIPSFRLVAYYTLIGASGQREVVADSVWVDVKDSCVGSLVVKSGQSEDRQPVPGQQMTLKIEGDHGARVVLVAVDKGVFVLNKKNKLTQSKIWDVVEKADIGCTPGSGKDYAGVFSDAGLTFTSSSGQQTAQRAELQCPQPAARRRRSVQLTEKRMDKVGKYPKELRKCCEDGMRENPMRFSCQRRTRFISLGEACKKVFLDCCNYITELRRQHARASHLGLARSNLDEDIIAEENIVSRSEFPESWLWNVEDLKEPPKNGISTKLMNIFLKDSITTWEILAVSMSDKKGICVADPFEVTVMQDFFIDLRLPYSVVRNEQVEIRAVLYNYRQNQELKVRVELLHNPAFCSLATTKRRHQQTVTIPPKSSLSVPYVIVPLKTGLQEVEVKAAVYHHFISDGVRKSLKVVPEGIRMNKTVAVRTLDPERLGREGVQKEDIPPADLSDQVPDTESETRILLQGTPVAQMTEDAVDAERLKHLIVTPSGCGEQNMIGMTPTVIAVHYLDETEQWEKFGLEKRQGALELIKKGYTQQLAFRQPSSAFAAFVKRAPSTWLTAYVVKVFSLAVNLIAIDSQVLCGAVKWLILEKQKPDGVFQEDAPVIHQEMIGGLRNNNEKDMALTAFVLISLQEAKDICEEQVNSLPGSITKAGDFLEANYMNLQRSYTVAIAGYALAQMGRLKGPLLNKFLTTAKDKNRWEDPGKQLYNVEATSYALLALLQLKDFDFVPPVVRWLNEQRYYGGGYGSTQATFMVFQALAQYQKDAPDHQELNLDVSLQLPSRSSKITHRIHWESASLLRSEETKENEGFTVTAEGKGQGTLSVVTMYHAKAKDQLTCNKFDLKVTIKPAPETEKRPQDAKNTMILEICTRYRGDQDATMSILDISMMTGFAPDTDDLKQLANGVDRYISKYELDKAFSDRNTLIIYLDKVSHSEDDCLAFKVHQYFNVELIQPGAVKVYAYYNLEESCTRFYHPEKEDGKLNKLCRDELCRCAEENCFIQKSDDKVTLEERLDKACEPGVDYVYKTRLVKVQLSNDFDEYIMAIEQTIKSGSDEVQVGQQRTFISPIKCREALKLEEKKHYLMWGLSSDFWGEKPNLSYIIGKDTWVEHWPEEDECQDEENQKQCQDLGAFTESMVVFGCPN
Method: (§1) The kinetic parameters of the candidates are determined using a surface plasmon resonance (SPR) and Biacore T100 device. C3 and different variants thereof (Table 19) are immobilized as a ligand on a HC30M SPR sensor chip (XanTec bionanalytics, Germany) using EDC/[…] linking chemistry. Five increasing concentrations of each molecule (analyte) are consecutively injected using the single cycle kinetics (SCK) mode to determine the kinetic parameters. Regeneration between the candidates is done with 10 mM glycine*HCl, 2 M NaCl, pH 3.5. The data is fitted to a 1:1 Langmuir binding model and the kinetic parameters of on-rate (ka), off-rate (kd), and affinity […] were determined.
Single nucleotide polymorphism (SNP) in C3 has been observed across the population and certain SNPs were identified in genome-wide association studies (GWAS) to correlate with an increased risk to develop AMD. Common SNP variants include P314L, which occurs in approximately 23.3% of population, and R102G, which has been reported to occur in approximately 26-29% of population. Very rare variants, which occur in less that 2.5% of the population include K155Q, R735W, S1619W, K65Q and R161W.
The inventors therefore measured the binding affinity of the scFv of the invention to the most commonly occurring C3 forms, i.e., R102G and P314L. Wild-type human C3, human C3 P314L and human C3 R102G are expressed in the CHO cell line using the ExpiFectamine CHO Expression Kit (Thermo Fisher Scientific). Proteins are expressed with N-terminal 6×His tag and purified using a HisTrap Excel HP column (GE Healthcare), followed by a size-exclusion chromatography step (SUPERDEX®20010/300GL; GE Healthcare).

[2] = tested on: Lectin Pathway; experiment: WEISLAB Complement system Screen, lectin pathway MAC (C5b-C9) formation; format: biochemical, human; conditions: human serum; read-out: IC50 (nM) Lectin Pathway MAC deposition
Method: (§2) To identify antibodies that block all 3 complement pathways, antibodies are screened using an enzyme immunoassay for the qualitative determination of functional classical, lectin and alternative complement pathways in human serum using the WEISLAB® Complement system Screen (Svar Life Science AB, Malmö, Sweden).
(§3) To monitor inhibition of the complement system in human serum, the scFv of the invention or the comparator molecules are tested using an enzyme immunoassay for the qualitative determination of functional classical, lectin and alternative complement pathways in human serum using the WEISLAB® Complement system Screen (Svar Life Science AB, Malmö, Sweden), following the supplier's instructions. The amount of C5b-C9 neoantigen generated is proportional to the functional activity of complement pathways. The scFv of the invention and the comparator molecules are tested in a concentration response curve and the IC50 for the inhibition is calculated using the GraphPadPrism software and a non-linear, 4 parameters curve regression.

[3] = target: cyno C3; experiment: SPR (Biacore T100) binding to cyno C3; set-up: species or system cynomolgus (Macaca fascicularis); conditions: for Kd: Table 20, SPR; for kd cyno C3: off-rate; for ka cyno C3: on-rate
Method: as §1

[4] = target: human C3 (Homo sapiens, UniProt P01024); experiment: SPR (Biacore T100) binding to human C3; conditions: for kd C3: off-rate; for ka C3: on-rate
Chain of human C3 (P01024 23-1663): as the sequence (P01024 23-1663 R102G) above, with G80R counted along it
Method: as §1

[5] = Viscosity at high concentrations, cone-plate-rheometer; format: physicochemical; conditions: 20° C., shear-rate 1000 s^−1; for Viscosity [mPa * s] Fully formulated at 150 g/L: 10 mM His pH 5.5, 275 mM sucrose, 0.02% w/v Polysorbate20; for Viscosity [mPa * s] Minimal buffer at 185 g/L: 10 mM His pH 5.5
Method: Viscosity measurements are performed with the samples prepared for the storage stability study. In addition to the fully formulated samples (10 mM His pH 5.5, 275 mM sucrose, 0.02% w/v Polysorbate20), viscosity of each candidate is also measured in a minimal formulation (10 mM histidine pH 5.5). This is performed to evaluate the drug substance processability (e.g., filtration, pumping, diafiltration, etc.) of the candidates up to 125% of the final drug product concentration of 150 mg/ml.
Viscosity is measured at 20° C. at a shear-rate of 1000 s^−1 using a cone-plate-rheometer. Briefly, a stepwise increase of the shear rate up to 1,000 s^−1 is done collecting 100 data points, followed by a further increase of the shear rate up to 2000 s^−1, collecting another 10 data points. Finally, a stepwise decrease of the shear rate down to starting rate is done. Good drug product handling properties for filling and syringeability have been observed for all candidates

[6] = target: T2, human C3b (Homo sapiens, UniProt P01024); experiment: SPR (Biacore T100) binding to human C3b; conditions: for kd C3b: off-rate; for ka C3b: on-rate
T2 construct: C3b is derived from native C3 and is the larger of two elements formed by the cleavage of C3
T2 sequence (P01024 23-667 limits assumed): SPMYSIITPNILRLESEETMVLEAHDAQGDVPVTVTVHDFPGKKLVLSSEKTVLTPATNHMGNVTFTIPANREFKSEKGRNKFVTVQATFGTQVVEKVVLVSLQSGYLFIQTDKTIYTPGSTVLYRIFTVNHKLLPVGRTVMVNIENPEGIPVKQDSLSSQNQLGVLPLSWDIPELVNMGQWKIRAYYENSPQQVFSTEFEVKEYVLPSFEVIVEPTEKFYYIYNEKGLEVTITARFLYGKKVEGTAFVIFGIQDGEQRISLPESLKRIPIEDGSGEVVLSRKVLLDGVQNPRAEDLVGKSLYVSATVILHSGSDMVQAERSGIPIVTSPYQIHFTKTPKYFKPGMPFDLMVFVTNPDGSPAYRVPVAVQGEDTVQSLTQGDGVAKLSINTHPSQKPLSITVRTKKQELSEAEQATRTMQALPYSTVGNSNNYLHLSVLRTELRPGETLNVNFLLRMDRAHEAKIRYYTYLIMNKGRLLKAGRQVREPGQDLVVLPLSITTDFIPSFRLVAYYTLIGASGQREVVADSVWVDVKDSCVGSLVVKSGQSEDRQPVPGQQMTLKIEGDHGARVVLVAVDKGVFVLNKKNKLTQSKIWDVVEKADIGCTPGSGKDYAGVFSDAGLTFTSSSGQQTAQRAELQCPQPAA
T2 sequence (P01024 749-1663 limits assumed): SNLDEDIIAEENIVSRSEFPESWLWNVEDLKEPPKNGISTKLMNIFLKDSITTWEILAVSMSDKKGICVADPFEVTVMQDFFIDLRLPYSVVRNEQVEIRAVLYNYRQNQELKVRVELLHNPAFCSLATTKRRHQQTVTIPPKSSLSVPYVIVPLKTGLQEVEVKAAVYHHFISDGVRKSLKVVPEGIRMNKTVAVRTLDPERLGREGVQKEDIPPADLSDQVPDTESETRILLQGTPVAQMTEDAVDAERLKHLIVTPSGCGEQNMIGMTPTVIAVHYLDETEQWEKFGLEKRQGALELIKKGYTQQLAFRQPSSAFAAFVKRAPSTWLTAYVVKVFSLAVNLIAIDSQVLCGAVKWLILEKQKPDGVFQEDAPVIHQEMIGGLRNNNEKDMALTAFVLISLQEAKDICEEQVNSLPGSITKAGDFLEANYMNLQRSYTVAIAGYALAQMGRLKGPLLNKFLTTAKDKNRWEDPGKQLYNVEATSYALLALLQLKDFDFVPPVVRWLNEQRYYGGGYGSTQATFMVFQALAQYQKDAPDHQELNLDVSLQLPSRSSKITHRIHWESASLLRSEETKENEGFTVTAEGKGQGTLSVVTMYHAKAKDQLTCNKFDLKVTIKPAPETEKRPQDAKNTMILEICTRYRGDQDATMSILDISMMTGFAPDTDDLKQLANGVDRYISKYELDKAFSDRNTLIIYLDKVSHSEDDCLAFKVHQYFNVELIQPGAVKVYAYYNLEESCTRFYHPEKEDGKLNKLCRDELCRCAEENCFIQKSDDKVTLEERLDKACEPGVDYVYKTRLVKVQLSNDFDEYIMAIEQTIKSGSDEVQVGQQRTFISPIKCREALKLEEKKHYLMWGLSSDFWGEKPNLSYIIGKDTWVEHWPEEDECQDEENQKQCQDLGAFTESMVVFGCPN
Method: as §1

[7] = target: T3, human C3 P314L (Homo sapiens, UniProt P01024, P314L); experiment: SPR (Biacore T100) binding to C3 SNP1 P314L; conditions: for Kd: Table 20, SPR; for kd C3 SNP1 P314L: off-rate; for ka C3 SNP1 P314L: on-rate
T3 construct: 6×His (N); made in house; host or cells: CHO (ExpiFectamine CHO Expression Kit)
T3 sequence (P01024 23-1663 P314L): as the sequence (P01024 23-1663 R102G) above, with G80R, P292L counted along it
Method: as §1
Single nucleotide polymorphism (SNP) in C3 has been observed across the population and certain SNPs were identified in genome-wide association studies (GWAS) to correlate with an increased risk to develop AMD. […] Very rare variants, which occur in less that 2.5% of the population include K155Q, R735W, S1619W, K65Q and R161W.
(§4) Proteins are expressed with N-terminal 6×His tag and purified using a HisTrap Excel HP column (GE Healthcare), followed by a size-exclusion chromatography step (SUPERDEX®20010/300GL; GE Healthcare).

[8] = target: T4, recombinant C3 (wild-type human C3) (Homo sapiens, UniProt P01024); experiment: SPR (Biacore T100) binding to recombinant C3; conditions: for Kd: Table 20, SPR; for kd recombinant C3: off-rate; for ka recombinant C3: on-rate
T4 construct: 6×His (N); made in house; host or cells: CHO (ExpiFectamine CHO Expression Kit)
T4 sequence (P01024 23-1663): as the sequence (P01024 23-1663 R102G) above, with G80R counted along it
Method: as §1, §4

[9] = tested on: Classical Pathway; experiment: WEISLAB Complement system Screen, classical pathway MAC (C5b-C9) formation; format: biochemical, human; conditions: human serum; read-out: IC50 (nM) Classical Pathway MAC deposition
Method: as §2, §3

[10] = Storage stability at 150 mg/ml, chemical degradation by IEX-HPLC; format: physicochemical; conditions: for Starting charge purity (IEX-HPLC): before storage; for Storage stability, IEX 4 weeks at 25° C. [D %] / Storage stability, IEX 4 weeks at 40° C. [D %]: decrease versus start
Method: Clone I, clone II and clone III are tested for storage stability. Samples are concentrated to 150 mg/ml (Vivaspin20 centrifugal device, 5 kDa MWCO at 3800×g) and stored at 25° C. and 40° C. for up to 4 weeks. Samples are analyzed for oligomerization (SE-HPLC) and chemical degradation (IEX-HPLC). The starting monomeric purity as determined by SE-HPLC was 99.96% for each clone. The starting charge purity, as determined by IEX-HPLC was 98.07%, 97.16% and 96.76%, respectively for clone I, II and III.

[11] = Table 19, SPR, read-out: Affinity human C3
[12] = Table 20, SPR, read-out: KD (nM) C3
[13] = Table 19, SPR, read-out: Affinity human C3b
[14] = Table 20, SPR, read-out: KD (nM) C3b

Molecule	Kd [1]	kd C3 SNP2 R102G [1]	ka C3 SNP2 R102G [1]	IC50 [2]	Kd [3]	kd cyno C3 [3]	ka cyno C3 [3]	Kd [4, 11]	Kd [4, 12]	kd C3 [4]	ka C3 [4]	Viscosity [mPa * s] Fully formulated at 150 g/L [5]	Viscosity [mPa * s] Minimal buffer at 185 g/L [5]	Kd [6, 13]	Kd [6, 14]	kd C3b [6]	ka C3b [6]	Kd [7]	kd C3 SNP1 P314L [7]	ka C3 SNP1 P314L [7]	other results
Clone I: humanized anti-C3 scFv, VH SEQ ID NO: 20, VL SEQ ID NO: 21; scFv SEQ ID NO: 26 or 27 (antibody, V domains shown, VH; VL) VH: QVQLVESGGGSVQPGRSLRLSCAASGFTFSNYAMNWVRQAPGKGLEWVAVISYDGSNKYYADSVKGRFTISRDNSKNTLYLQMNSLRAEDTASYYCARAVGYHHARLDPWGCGTSVTVSS VL: QLVLTQSPSASASLGASVKLTCTLSSAHKTYTIDWYQQQPEKCPRYLMQLKSDGSYTKGSGIPDRFSGSSSGAERYLTISSLQSEDEADYYCGTEGVGGYVFGGGTKLTVLG	0.135 nM	4.5e-05 s⁻¹	330000 M⁻¹ s⁻¹	67 nM	0.267 nM	6.3e-05 s⁻¹	240000 M⁻¹ s⁻¹	0.152 nM	0.152 nM	4.7e-05 s⁻¹	310000 M⁻¹ s⁻¹	3.9 mPa * s	5.4 mPa * s	0.149 nM	0.149 nM	4.8e-05 s⁻¹	320000 M⁻¹ s⁻¹	0.14 nM	4.2e-05 s⁻¹	300000 M⁻¹ s⁻¹	Kd ([4]; Table 16, read-out: C3 (Kd)): 0.16 nM; Kd ([6]; Table 16, read-out: C3b (Kd)): 0.14 nM; Kd [8]: 0.148 nM; kd recombinant C3 [8]: 4.9e-05 s⁻¹; ka recombinant C3 [8]: 330000 M⁻¹ s⁻¹; IC50 [9]: 79 nM; Starting charge purity (IEX-HPLC) [10]: 98.07%; Storage stability, IEX 4 weeks at 25° C. [D %] [10]: 1.1 D %; Storage stability, IEX 4 weeks at 40° C. [D %] [10]: 2.4 D %
Clone II: humanized anti-C3 scFv, VH SEQ ID NO: 22, VL SEQ ID NO: 23; scFv SEQ ID NO: 28 or 29 (antibody, V domains shown, VH; VL) VH: QVQLVESGGGSVQPGRSLRLSCAASGFTFSNYAMNWVRQAPGKGLEWVAIINVGGGTNYADSVKGRFTISRDNSKNTLYLQMNSLRAEDTASYYCARAVGYHHARLDPWGCGTSVTVSS VL: QLVLTQSPSASASLGASVKLTCTLSSAHKTYTIDWYQQQPEKCPRYLMQLKSDGSYTKGSGIPDRFSGSSSGAERYLTISSLQSEDEADYYCGTEGVGGYVFGGGTKLTVLG	0.021 nM	7e-06 s⁻¹	330000 M⁻¹ s⁻¹	71 nM	0.07 nM	1.5e-05 s⁻¹	210000 M⁻¹ s⁻¹	0.022 nM	0.022 nM	5.5e-06 s⁻¹	250000 M⁻¹ s⁻¹	3.9 mPa * s	4.5 mPa * s	0.05 nM	0.05 nM	1.2e-05 s⁻¹	250000 M⁻¹ s⁻¹	< 0.04 nM	<1.1e-05 s⁻¹	290000 M⁻¹ s⁻¹	Kd [8]: 0.035 nM; kd recombinant C3 [8]: 1e-05 s⁻¹; ka recombinant C3 [8]: 300000 M⁻¹ s⁻¹; IC50 [9]: 77 nM; Starting charge purity (IEX-HPLC) [10]: 97.16%; Storage stability, IEX 4 weeks at 25° C. [D %] [10]: 0.5 D %; Storage stability, IEX 4 weeks at 40° C. [D %] [10]: 3.3 D %
